Source: article PMC8440430 (Current biology : CB, 2021)
Values belong to the binder of their own block, whether it stands above or below them.

Key:
[1] = biological target: MAD2 WT (recombinant, TEV-cleaved) (human, UniProt Q13257 1-205); assay: SEC
[2] = biological target: His6-MAD2 (human, UniProt Q13257 1-205); assay: pull-down
[3] = biological target: FLAG-RIT1 protein (full-length recombinant RIT1) (human, UniProt Q92963 1-219); assay: pull-down
[4] = biological target: His6-RIT1 (human, UniProt Q92963 1-219); assay: pull-down
Sequence of His6-RIT1 (Q92963 whole entry): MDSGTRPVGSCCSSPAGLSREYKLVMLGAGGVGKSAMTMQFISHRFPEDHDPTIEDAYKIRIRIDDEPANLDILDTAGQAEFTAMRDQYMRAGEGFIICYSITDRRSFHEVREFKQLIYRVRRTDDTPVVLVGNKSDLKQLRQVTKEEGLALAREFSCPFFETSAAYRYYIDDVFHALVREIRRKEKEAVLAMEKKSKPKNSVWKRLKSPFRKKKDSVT

Sequence of FLAG-RIT1 protein (full-length recombinant RIT1) (Q92963 whole entry): as above

- binding result [1]: binds
B1: RIT1 (202-216) peptide (peptide, UniProt Q92963 202-216, looked up)
peptide: SVWKRLKSPFRKKKD

- binding result [2]: binds
B2: GST-CDC20 111-138 (domain or fragment, UniProt Q12834 111-138, looked up)
chain: EHQKAWALNLNGFDVEEAKILRLSGKPQ

- binding result [3]: binds
B3: GST-MAD2 Loop-less (LL) (natural protein, human)
chain: MALQLSREQGITLRGSAEIVAEFFSFGINSILYQRGIYPSETFTRVQKYGLTLLVTTDLELIKYLNNVVEQLKDWLYKCSVQKLVVVISNIESGEVLERWQFDIECDKGSGEKSQKAIQDEIRSVIRQITATVTFLPLLEVSCSFDLLIYTDKDLVVPEKWEESGPQFITNSEEVRLRSFTTTIHKVNSMVAYKIPVND

- binding result [4]: binds
B4: GST-RGL3 RBD (604-703) (domain or fragment, UniProt Q3MIN7 604-703, looked up)
chain: IPLPAQQSSEARVIRVSIDNDHGNLYRSILLTSQDKAPSVVRRALQKHNVPQPWACDYQLFQVLPGDRVLLIPDNANVFYAMSPVAPRDFMLRRKEGTRN
